B1: TCN-537 (3194_D21) (antibody, V domains shown)
VH: QVQLQQWGSGLLKPSETLSLTCAVYGGSFRDDYWTWIRQPPGKGLEWIGEINHSGRTNYNPSLKSRVTISVDTSLKQFSLKVISVTAADTAVYYCARGTSHVSRYFDWLPPTNWFDPWGQGTQVTVSS
VL: DIVLTQSPGTLSLSPGERATLSCRASQSVSSSYLAWYQQKPGQAPRLVMYGAATRATGIPDRFSGSGSGPDFTLTISRLEPEDFAMYYCQQYGNSPITFGQGTRLEIK
B2: TCN-545 (5082_I15) (antibody, V domains shown)
VH: QVQLQQWGAGLLKPSETLSLSCAVFGGSFSDYYWTWIRQPPGKGLEWIGEIKHSGRTNYNPSLESRVTISVDTSKNQFSLKLSSVTAADTAIYYCARGTDPDTEGYCRSGSCSAFDFWGQGTLVTVSS
VL: EIVLTQSPGTLSLSPGERATLSCRASHFVNYRSLAWYQQTPGQVPRLLIYGASTRATGIPDRFSGSGSGTDFTLTISRLEPEDFAVYFCQQYGGSPRYTFGQGTRLEIK

How the values were obtained:
Details in all cases: remark: other sources report otherwise
[1] = target: T1, recombinant soluble homotrimeric HA of A/duck/Yangzhou/02/05 (H8N4) (Influenza A virus A/duck/Yangzhou/02/2005(H8N4)); test: HA microarray, BCC supernatant
[2] = target: T2, recombinant soluble homotrimeric HA of A/Netherlands/219/03 (H7N7) (Influenza A virus A/Netherlands/219/03(H7N7)); test: HA microarray, BCC supernatant
[3] = target: recombinant soluble homotrimeric HA of A/northern shoveler/California/HKWF115/07 (H6) (Influenza A virus A/northern shoveler/California/HKWF115/2007(H6N1)); test: HA microarray, BCC supernatant
[4] = target: T3, recombinant soluble homotrimeric HA of A/swine/Ontario/01911-2/99 (H4N6) (Influenza A virus A/Swine/Ontario/01911-2/99 (H4N6)); test: HA microarray, BCC supernatant
[5] = target: T4, recombinant soluble homotrimeric HA of A/Vietnam/1203/04 (H5N1) (Influenza A virus A/VietNam/1203/2004(H5N1)); test: HA microarray, BCC supernatant
[6] = target: T5, recombinant soluble homotrimeric HA of A/Wisconsin/67/05 (H3N2) (Influenza A virus A/Wisconsin/67/2005(H3N2)); test: HA microarray, BCC supernatant
[7] = target: T6, recombinant soluble homotrimeric HA of A/chicken/Vietnam/NCVD-016/08 (H5N1) (Influenza A virus A/chicken/Vietnam/NCVD-016/2008(H5N1)); test: HA microarray, BCC supernatant
[8] = target: recombinant soluble homotrimeric HA of A/Hong Kong/2108/03 (H9N2) (Influenza A virus A/HK/2108/2003(H9N2)); test: HA microarray, BCC supernatant
[9] = target: T7, recombinant soluble homotrimeric HA of A/Egypt/3300-NAMRU3/08 (H5N1) (Influenza A virus A/Egypt/3300-NAMRU3/2008(H5N1)); test: HA microarray, BCC supernatant
[10] = target: T8, recombinant soluble homotrimeric HA of A/Japan/305/57 (H2N2) (Influenza A virus A/Japan/305/1957(H2N2)); test: HA microarray, BCC supernatant
[11] = target: recombinant soluble homotrimeric HA of A/Anhui/1/05 (H5N1) (Influenza A virus A/Anhui/1/2005(H5N1)); test: HA microarray, BCC supernatant
[12] = target: T9, recombinant soluble homotrimeric HA of A/California/4/09 (H1N1) (Influenza A virus A/California/04/2009(H1N1)); test: HA microarray, BCC supernatant
[13] = target: T10, recombinant soluble homotrimeric HA of A/Indonesia/5/05 (H5N1) (Influenza A virus A/Indonesia/5/2005(H5N1)); test: HA microarray, BCC supernatant
[14] = target: T1, recombinant soluble homotrimeric HA of …; test: trimeric HA microarray, transfection supernatant set 5
[15] = target: T2, recombinant soluble homotrimeric HA of …; test: as above
[16] = target: recombinant soluble homotrimeric HA of A/Hong Kong/156/97 (H5N1) (Influenza A virus A/Hong Kong/156/97 (H5N1)); test: as above
[17] = target: T3, recombinant soluble homotrimeric HA of …; test: as above
[18] = target: T4, recombinant soluble homotrimeric HA of …; test: as above
[19] = target: T5, recombinant soluble homotrimeric HA of …; test: as above
[20] = target: T6, recombinant soluble homotrimeric HA of …; test: as above
[21] = target: T7, recombinant soluble homotrimeric HA of …; test: as above
[22] = target: recombinant soluble homotrimeric HA of A/South Carolina/1/18 (H1N1) (Influenza A virus A/South Carolina/1/18 (H1N1)); test: as above
[23] = target: T8, recombinant soluble homotrimeric HA of …; test: as above
[24] = target: T9, recombinant soluble homotrimeric HA of …; test: as above
[25] = target: T10, recombinant soluble homotrimeric HA of …; test: as above
[26] = target: recombinant homotrimeric HA A/Hong Kong/156/97 H5N1 (Influenza A virus A/Hong Kong/156/97 (H5N1)); test: protein microarray, purified IgG, trimeric HA
[27] = target: recombinant homotrimeric HA A/Egypt/3300-NAMRU3/08 H5N1 (Influenza A virus A/Egypt/3300-NAMRU3/2008(H5N1)); test: protein microarray, purified IgG, trimeric HA
[28] = target: recombinant homotrimeric HA A/Wisconsin/67/05 H3N2 (Influenza A virus A/Wisconsin/67/2005(H3N2)); test: protein microarray, purified IgG, trimeric HA
[29] = target: recombinant homotrimeric HA A/Netherlands/219/03 H7N7 (Influenza A virus A/Netherlands/219/03(H7N7)); test: protein microarray, purified IgG, trimeric HA
[30] = target: recombinant homotrimeric HA A/California/4/09 H1N1 (Influenza A virus A/California/04/2009(H1N1)); test: protein microarray, purified IgG, trimeric HA
[31] = target: recombinant homotrimeric HA A/South Carolina/1/18 H1N1 (Influenza A virus A/South Carolina/1/18 (H1N1)); test: protein microarray, purified IgG, trimeric HA
[32] = target: recombinant homotrimeric HA A/Vietnam/1203/04 H5N1 (Influenza A virus A/VietNam/1203/2004(H5N1)); test: protein microarray, purified IgG, trimeric HA
[33] = target: recombinant homotrimeric HA A/Japan/305/57 H2N2 (Influenza A virus A/Japan/305/1957(H2N2)); test: protein microarray, purified IgG, trimeric HA
[34] = target: recombinant homotrimeric HA A/Hong Kong/2108/03 H9N2 (Influenza A virus A/HK/2108/2003(H9N2)); test: protein microarray, purified IgG, trimeric HA
[35] = target: recombinant homotrimeric HA A/chicken/Vietnam/NCVD-016/08 H5N1 (Influenza A virus A/chicken/Vietnam/NCVD-016/2008(H5N1)); test: protein microarray, purified IgG, trimeric HA
[36] = target: recombinant homotrimeric HA A/Indonesia/5/05 H5N1 (Influenza A virus A/Indonesia/5/2005(H5N1)); test: protein microarray, purified IgG, trimeric HA
[37] = target: recombinant homotrimeric HA A/duck/Yangzhou/02/05 H8N4 (Influenza A virus A/duck/Yangzhou/02/2005(H8N4)); test: protein microarray, purified IgG, trimeric HA

Binder	Trimeric HA Binding: RLU [2]	Trimeric HA Binding: RLU [5]	Trimeric HA Binding: RLU [6]	Trimeric HA Binding: RLU [7]	Trimeric HA Binding: RLU [10]	Trimeric HA Binding: RLU [14]	Trimeric HA Binding: RLU [17]	Trimeric HA Binding: RLU [18]	Trimeric HA Binding: RLU [19]	Trimeric HA Binding: RLU [20]	Trimeric HA Binding: RLU [22]	Trimeric HA Binding: RLU [23]	Trimeric HA Binding: RLU [27]	Trimeric HA Binding: RLU [28]	Trimeric HA Binding: RLU [29]	Trimeric HA Binding: RLU [30]	Trimeric HA Binding: RLU [31]	Trimeric HA Binding: RLU [33]	Trimeric HA Binding: RLU [34]	other results
B1	1050 RLU	80 RLU	549 RLU	8620 RLU	44700 RLU	25500 RLU	3280 RLU	50300 RLU	1940 RLU	4480 RLU	46800 RLU	16200 RLU	3190 RLU	154 RLU	729 RLU	10200 RLU	2840 RLU	19500 RLU	171 RLU	Trimeric HA Binding: RLU [1]: 7830 RLU; Trimeric HA Binding: RLU [3]: 5210 RLU; Trimeric HA Binding: RLU [4]: 19 RLU; Trimeric HA Binding: RLU [8]: 147 RLU; Trimeric HA Binding: RLU [9]: 38200 RLU; Trimeric HA Binding: RLU [11]: 335 RLU; Trimeric HA Binding: RLU [12]: 21900 RLU; Trimeric HA Binding: RLU [13]: 14900 RLU; Trimeric HA Binding: RLU [15]: 3650 RLU; Trimeric HA Binding: RLU [16]: 10700 RLU; Trimeric HA Binding: RLU [21]: 33500 RLU; Trimeric HA Binding: RLU [24]: 33800 RLU; Trimeric HA Binding: RLU [25]: 2420 RLU; Trimeric HA Binding: RLU [26]: 862 RLU; Trimeric HA Binding: RLU [32]: 5690 RLU
B2	1180 RLU	235 RLU	575 RLU	392 RLU	157 RLU	13200 RLU	2940 RLU	42900 RLU	32000 RLU	3230 RLU	900 RLU	1360 RLU	1410 RLU	23700 RLU	1490 RLU	672 RLU	289 RLU	1400 RLU	262 RLU	Trimeric HA Binding: RLU [35]: 679 RLU; Trimeric HA Binding: RLU [36]: 193 RLU; Trimeric HA Binding: RLU [37]: 396 RLU

From patent US20150086555A1
